Consider 2 substances from patent publication US20140227179A1.

Experiment [1] has as its target MUC5ac mucin (PAM4 antigen) from CaPan1 human pancreatic carcinoma (human) (UniProt P98088). Briefly: ELISA on target mucin antigen (FIG. 9).
The target in experiment [2] is IMP-288 DOTA-di-HSG hapten-peptide. Briefly: 111In-IMP-288 with TF10, size exclusion chromatography (not shown). (In general: In gel filtration, larger molecules generally elute earlier.)
Experiment [3] addresses MUC5ac mucin (PAM4 antigen) from CaPan1 human pancreatic carcinoma (human) (UniProt P98088). Briefly: size exclusion chromatography of TF10/111In-IMP-288 with excess mucin.
For experiment [4] the target is unchanged. Briefly: radiolabeled TF10 with MUC5ac, size exclusion chromatography (not shown).
Experiment [5] has the same target. Briefly: inhibition EIA on CPM1-coated plates; competitor hPAM4 at […].
Experiment [6] shares this target. Briefly: sandwich EIA, hPAM4 capture of antigen from CPM1, MAb probe at 10 µg/mL (FIG. 26).

pEC50: −log10 of the molar value.

Consider “TF10 bispecific ([hPAM4]2 x h679) DNL construct (bispecific antibody)”, for which the pEC50 – broadly, −log10 of the EC50, conventionally taken in molar units – in experiment [1] is 8.85. In experiment [2], the percent of peptide bound turned out to be 90%. For the same substance, the percent of TF10-bound 111In-IMP-288 shifted by mucin in experiment [3] worked out at 92%. In addition, the immunoreactive fraction bound in experiment [4] amounted to 87%.
Substance 45M1 anti-MUC5ac MAb (antibody) gave an ICmax (maximal % inhibition) in experiment [5] of 25.5%. The Kd (commonly the concentration at which binding is half-saturated) in experiment [6] came to 14.3 µg/mL.
